Changes are numbered by the printed parent chain.
T1: Recombinant human CXCL1 (human, UniProt P09341 35-107)
T1 sequence: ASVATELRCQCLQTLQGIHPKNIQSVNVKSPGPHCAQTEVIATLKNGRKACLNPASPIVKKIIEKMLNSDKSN

T2: Recombinant human CXCL2 (human, UniProt P19875 35-107)
T2 sequence: T1 sequence with S2P, V3L, P20L, N27K, R48Q, I58M, N68K, S69N, D70G

T3: Recombinant human CXCL3 (human, UniProt P19876 35-107)
T3 sequence: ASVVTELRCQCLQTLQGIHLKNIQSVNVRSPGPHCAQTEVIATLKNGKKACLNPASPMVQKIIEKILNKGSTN

B1: C-X-C chemokine receptor 2 (CXCR2), FLAG-tagged, purified from Sf9 cells (receptor)
chain: ANFTPVNGSSGNQSVRLVTSSSMEDFNMESDSFEDFWKGEDLSNYSYSSTLPPFLLDAAPCEPESLEINKYFVVIIYALVFLLSLLGNSLVMLVILYSRVGRSVTDVYLLNLALADLLFALTLPIWAASKVNGWIFGTFLCKVVSLLKEVNFYSGILLLACISVDRYLAIVHATRTLTQKRYLVKFICLSIWGLSLLLALPVLLFRRTVYSSNVSPACYEDMGNNTANWRMLLRILPQSFGFIVPLLIMLFCYGFTLRTLFKAHMGQKHRAMRVIFAVVLIFLLCWLPYNLVLLADTLMRTQVIQETCERRNHIDRALDATEILGILHSCLNPLIYAFIGQKFRHGLLKILAIHGLISKDSLPKDSRPSFVGSSSGHTSTTL

How the values were obtained:
Assay in all cases: cryo-EM structure
[1] = target: Recombinant human CXCL5 (human)
Recombinant human CXCL1 = target: T1, Recombinant human CXCL1
Recombinant human CXCL2 = target: T2, Recombinant human CXCL2
Recombinant human CXCL3 = target: T3, Recombinant human CXCL3

Molecule	stoichiometry N [1]	binding result (Recombinant human CXCL1)	binding result (Recombinant human CXCL2)	binding result (Recombinant human CXCL3)
Recombinant human CXCL5 (ligand)	2			
B1		binds	binds	binds

— paper PMC7617694 (Molecular cell, 2025)
